In patent publication US20220096654A1, “PYRROLOBENZODIAZEPINE-ANTIBODY CONJUGATES AND USES THEREOF” (ADC THERAPEUTICS SA, priority 2020, published 2022):

B1: YTH24.5-hIgG1-AAA-PBD: YTH24.5 in human IgG1-AAA format conjugated to PBD drug-linker B1 (conjugate)
VH: QVNLLQSGAALVKPGASVKLSCKASSYTFTDYYIHWVKQSHGKTLEWIGYINPKSGFTNYNEKFRRKATLTVDKSTNTAYMDISRLTSEDSATYYCTRRTGVIPMDAWGQGASVTVSS
VL: DVVMTQTPVSLSVSLGGQVSISCRSSQSFVSSDGNTYLNWYLQKPGQSPQLLIYKVSNRLSGVPDRFSGSGSGTDFTLKISRVEHDDLGVYYCGQASKIPLTFGSGTKLEIK
B2: YTH24.5 (antibody)
heavy: QVNLLQSGAALVKPGASVKLSCKASSYTFTDYYIHWVKQSHGKTLEWIGYINPKSGFTNYNEKFRRKATLTVDKSTNTAYMDISRLTSEDSATYYCTRRTGVIPMDAWGQGASVTVSSAQTTAPSVYPLAPGCGDTTSSTVTLGCLVKGYFPEPVTVTWNSGALSSDVHTFPAVLQSGLYTLTSSVTSSTWPSQTVTCNVAHPASSTKVDKKVERRNGGIGHKCPTCPTCHKCPVPELLGGPSVFIFPPKPKDILLISQNAKVTCVVVDVSEEEPDVQFSWFVNNVEVHTAQTQPREEQYNSTFRVVSALPIQHQDWMSGKEFKCKVNNKALPSPIEKTISKPKGLVRKPQVYVMGPPTEQLTEQTVSLTCLTSGFLPNDIGVEWTSNGHIEKNYKNTEPVMDSDGSFFMYSKLNVERSRWDSRAPFVCSVVHEGLHNHHVEKSISRPPGK
light: DVVMTQTPVSLSVSLGGQVSISCRSSQSFVSSDGNTYLNWYLQKPGQSPQLLIYKVSNRLSGVPDRFSGSGSGTDFTLKISRVEHDDLGVYYCGQASKIPLTFGSGTKLEIKRADAAPTVSIFPPSMEQLTSGGATVVCFVNNFYPRDISVKWKIDGSEQRDGVLDSVTDQDSKDSTYSMSSTLSLTKVEYERHNLYTCEVVHKTSSSPVVKSFNRNEC
B3: YTH54.12 (antibody)
heavy: EVQLVESGGGLVQPGGSMKLSCAASGFTFSDYYMAWVRQAPKKGLEWVASMSFAGSSTYYGDSVKGRFTISRDNAKTTLYLQMNSLRSEDTATYYCARMYTTDYYLYWYFDFWGPGTMVTVSSAQTTAPSVYPLAPGCGDTTSSTVTLGCLVKGYFPEPVTVTWNSGALSSDVHTFPAVLQSGLYTLTSSVTSSTWPSQTVTCNVAHPASSTKVDKKVERRNGGIGHKCPTCPTCHKCPVPELLGGPSVFIFPPKPKDILLISQNAKVTCVVVDVSEEEPDVQFSWFVNNVEVHTAQTQPREEQYNSTFRVVSALPIQHQDWMSGKEFKCKVNNKALPSPIEKTISKPKGLVRKPQVYVMGPPTEQLTEQTVSLTCLTSGFLPNDIGVEWTSNGHIEKNYKNTEPVMDSDGSFFMYSKLNVERSRWDSRAPFVCSVVHEGLHNHHVEKSISRPPGK
light: DVQMTQSPSYLAASPGESVSISCKASKSISNYLAWYQQKPGEANKILIYSGSTLQSGTPSRFSGSGSGTDFSLTIRNLEPEDFAVYYCQQYDEKPLTFGSGTKLEIKRADAAPTVSIFPPSMEQLTSGGATVVCFVNNFYPRDISVKWKIDGSEQRDGVLDSVTDQDSKDSTYSMSSTLSLTKVEYERHNLYTCEVVHKTSSSPVVKSFNRNEC
B4: YTH54.12-hIgG1-AAA-PBD: YTH54.12 in human IgG1-AAA format conjugated to PBD drug-linker B1 (conjugate)
VH: EVQLVESGGGLVQPGGSMKLSCAASGFTFSDYYMAWVRQAPKKGLEWVASMSFAGSSTYYGDSVKGRFTISRDNAKTTLYLQMNSLRSEDTATYYCARMYTTDYYLYWYFDFWGPGTMVTVSS
VL: DVQMTQSPSYLAASPGESVSISCKASKSISNYLAWYQQKPGEANKILIYSGSTLQSGTPSRFSGSGSGTDFSLTIRNLEPEDFAVYYCQQYDEKPLTFGSGTKLEIK

Experiments:
[1] = tested on: 293T (CD45-); experiment: Cell viability assay 72 h (PrestoBlue), 293T; type: cell-based, human; conditions: drug-linker B1
Method: OCIM1, Jurkat and Nalm6 cells were seeded at 0.5×10^5/mL were cultured for 72 hours in presence of Mab or ADC or medium (in triplicate wells) in wells of flat bottom 96-well plates. 293T cells were seeded at 9.3×10^3 cells per well in flat bottom 96-well plates and allowed to adhere the plate for up to 24 hours. 293T cells were subsequently cultured with Mab or ADC or medium (in triplicate wells) for 72 hours. PrestoBlue® Cell viability Reagent (Thermo Fisher Scientific) was added to each and incubated for up to 1.5 hours. Fluorescence intensity from each well was detected using a FLUOstar OPTIMA microplate reader (BMG Labtech). Data points are mean±s.d. for representative experiments.

[2] = tested on: CD34+ PBSC (CD45+); experiment: Clonogenic assay, CD34+ PBSC treated 2 h with Mab or ADC; type: cell-based, human
Method: Cryopreserved purified CD34+ cells from mobilized peripheral blood from three normal donors were thawed and cultured at […] complete medium (RPMI 1640 plus 10% fetal calf serum) in presence of Mab, ADC or medium alone for 2 hours in 96-well U-bottom plates. Cells were mixed and 40 uL was transferred to 2 ml of StemMACS HSC-CFU complete with Epo (Miltenyi Biotech) and mixed well. 0.5 ml (250 cells) was plated into triplicate into wells of a 24-well plate. Colonies were enumerated between 10-14 days. Data is mean of three donors±s.d.

[3] = Dosimetry in non-humanised NSG mice; type: in vivo; conditions: for Comment (survival / culling): non-humanised NSG mice, monitored 2 weeks; for mice culled due to weight loss: human (hIgG1-AAA) format, ≥3 mg/kg, humanised and non-humanised mice
Method: For dosimetry in non-humanised NSG mice, adult NSG mice were injected intravenously via the tail vein with unconjugated Mab or ADC up to 5 mg/kg. Mice regularly monitored over a period of 2 weeks for any signs of morbidity. Mice were culled if rapid weight loss (>15%) occurred over a period of 2 days.

[4] = Dosimetry in humanised NSG mice; type: in vivo; conditions: 3 mg/kg, culled for weight loss >15%
Method: For dosimetry in humanised NSG mice, adult female NSG mice were sublethally irradiated with 2.5 Gy on the day before transplantation. Cryopreserved purified CD34+ cells from mobilized peripheral blood from a normal donor were thawed and 0.5×10^6 cells in PBS were injected intravenously into the tail vein. Human engraftment (human CD45+ cells) in the blood of all mice was determined by flow cytometry at 12 weeks post-transplant. Mice were assigned to treatment cohorts so that the median human engraftment in the blood for between cohorts was as similar as possible. Mice were treated with 0.3 mg/kg or 3 mg/kg Mab or ADC. Blood samples were taken after 7 days and analysed by flow cytometry. The bone marrow, blood and spleen of mice were analysed at 14 days post-treatment.

[5] = tested on: human CD45+ OCIM1 cells; experiment: Complement dependent cytotoxicity (51Cr release) assay; type: cell-based; conditions: 10 ug/ml antibody, 10% baby rabbit serum
Method: 1×10^6 human CD45+ OCIM1 cells in 100 uL of complete medium (RPMI 1640 plus 10% fetal calf serum) were radiolabelled with 100 μCi ^51Cr sodium chromate for 1 h at 37° C. followed by three washes with complete medium. Labelled cells were incubated at 5×10^4/mL in triplicate wells of a 96 well plate in presence of YTH24.5 alone, YTH54.12 alone or with both antibodies for 10 mins at room temperature before of addition of baby rabbit serum at a final concentration of 10%. A final concentration of 5% Triton X-100 was added to control wells of cells to determined maximum lysis. 50 uL of supernatant from each well was transferred into a white-walled plates containing 150 uL scintillation liquid in each well. Plates were read in a MicroBeta counter (Trilux) after overnight incubation. The percentage of specific lysis was calculated using the standard formula [(experimental−spontaneous release)/(maximum load-spontaneous release)×100] and expressed as the mean of triplicate samples.

[6] = tested on: human CD34+ cells; experiment: Ex vivo treatment of CD34+ cells with Mab or ADC prior to engraftment in NSG mice; conditions: CD34+ cells treated at 1 nM and 0.1 nM for 4 hours before transplantation; week 8
Method: Adult female NSG mice were sublethally irradiated with 2.5 Gy on the day before transplantation. Cryopreserved purified CD34+ cells from mobilized peripheral blood from a normal donor were thawed and cultured in complete medium (RPMI 1640 plus 10% fetal calf serum) in presence of Mab, ADC or medium alone for 4 hours. Cells were washed in phosphate buffered saline (PBS) and 0.5×10^6 cells in PBS were injected intravenously into the tail vein of mice. Engraftment of transplanted human cells (hCD45+) in the bone marrow of mice was determined by flow cytometry at 8 weeks after transplantation.

[7] = tested on: human CD45+ cells; experiment: Depletion of human CD45+ cells in humanised NSG mice; type: in vivo; conditions: for course of the levels of human CD45+ cells in blood: 1 mg/kg, two week period
Method: Adult female NSG mice were sublethally irradiated with 2.5 Gy on the day before transplantation (day −57). Cryopreserved purified CD34+ cells from mobilized peripheral blood from a normal donor were thawed and 0.5×10^6 cells in PBS were injected intravenously into the tail vein of mice (day −56). Human engraftment (human CD45+ cells) in the blood of mice was assessed at day −14 and day −1. Mice were assigned to treatment cohorts so that the median human CD45+ engraftment in the blood between the cohorts was as similar as possible. Mice were injected with 0.3 mg/kg or 1 mg/kg Mab or ADC intravenously via the tail vein. Blood samples were taken after 7 days and analysed by flow cytometry. The bone marrow, blood and spleen of mice were analysed at two weeks post-treatment.

[8] = tested on: luciferase expressing human CD45+ Jurkat cells; experiment: Jurkat leukaemia model in NSG mice (bioluminescence, survival); type: in vivo; conditions: 1 mg/kg, day 16
Method: Adult NSG mice were sublethally irradiated with 2 Gy on the day before injection of cells. 5×10^6 fire fly luciferase expressing Jurkat cells in PBS were injected intravenously into the tail vein of mice. On the following day PBS, MAbs or ADC were injected intravenously into the tail vein at a dose of 1 mg/kg. Mice were regularly monitored for signs of morbidity and weight loss for the duration of the experiment. For imaging, mice were injected intraperitoneally with 3 mg D-luciferin in PBS. Mice were initially anesthetized with 4% isoflurane and then maintained at 2% isoflurane. Ten minutes after injection of D-luciferin, mice were imaged inside a IVIS Lumina III (PerkinElmer). A sub-saturating image was captured using the auto-exposure setting in the Living Image software.

[9] = tested on: target cells; experiment: Live-imaging microscopy of antibody internalisation; type: cell-based; conditions: live-imaging microscopy (data not shown)
Text: In particular, the lysosomal pathway can be important in providing an environment for cleavage of the antibody-drug linkers, hereby releasing the drug in the target cells for highly specific cell killing.

[10] = PBD ADCs in human IgG1-AAA format
[11] = MAbs in human IgG1-AAA or rat IgG2b format, Isotype control and Isotype control PBD rat IgG2b format only

| Molecule | EC50 [1] [nM] | inhibition of colony formation [2, 10] | Comment (survival / culling) ([3]; 0.5 mg/kg i.v.) | Comment (survival / culling) ([3]; 5 mg/kg i.v.) | mice culled due to weight loss [3] | Comment (survival / culling) [4] | lytic activity on OCIM1 cells [5] | inhibition of colony formation [2, 11] | engraftment of human CD45+ cells in the bone marrow of NSG mice [6] | Mean % hCD45 levels in blood, 1 week post-treatment ([7]; 0.3 mg/kg i.v.) [%] | Mean % hCD45 levels in blood, 2 weeks Post-treatment ([7]; 0.3 mg/kg i.v.) [%] | Mean % hCD45 levels in blood, 1 week post-treatment ([7]; 1 mg/kg i.v.) [%] | Mean % hCD45 levels in blood, 2 weeks Post-treatment ([7]; 1 mg/kg i.v.) [%] | course of the levels of human CD45+ cells in blood [7] | Mean % hCD45 levels in blood, Pre-treatment ([7]; group later dosed 0.3 mg/kg) [%] | Mean % hCD45 levels in blood, Pre-treatment ([7]; group later dosed 1 mg/kg) [%] | bioluminescent signal of naked antibody group relative to the corresponding ADC group [8] [fold] | internalisation [9] |
| --- | --- | --- | --- | --- | --- | --- | --- | --- | --- | --- | --- | --- | --- | --- | --- | --- | --- | --- |
| B1 | 134 | dose-dependent inhibition of colony formation | All alive at day 14 | 2 culled at day 6 - | 4 of the 6 | 1 culled day 6, 1 | – | – | – | – | – | – | – | – | – | – | – | – |
| B2 | – | – | – | All alive at day 14 | – | – | showed lytic activity | do not inhibit colony formation | prevented engraftment | 3.53 | 4.72 | 0.82 | 3.92 | transient reduction | 5.55 | 5.47 | 100 | substantially internalised via a lysosomal pathway |
| B3 | – | – | – | All alive at day 14 | – | – | no lytic activity | do not inhibit colony formation | prevented engraftment | 3.19 | 3.81 | 1.02 | 1.84 | transient reduction | 5.52 | 5.98 | 10 | substantially internalised via a lysosomal pathway |
| B4 | 16.5 | dose-dependent inhibition of colony formation | All alive at day 14 | All alive at day 14 | 1 of the 6 | 1 culled on day 9 | – | – | – | – | – | – | – | – | – | – | – | – |
